Data reported in PMC6050322, “A radical S-adenosyl-L-methionine enzyme and a methyltransferase catalyze cyclopropane formation in natural product biosynthesis” (Nature Communications, 2018).

Biological target: T1, HemN-like radical SAM enzyme Swoo_2002 (Shewanella woodyi ATCC 51908, UniProt B1KQP7 1-448)
T1 construct: Swoo_2002, HemN-like radical SAM enzyme (counterpart of C10P) from a cryptic biosynthetic gene cluster of Shewanella woodyi ATCC 51908; The enzyme carries one [4Fe-4S] cluster per polypeptide after anaerobic reconstitution; also called C10P surrogate; c10P counterpart; source: E. coli Rosetta(DE3) (strain E. coli RoTB-SW), purified (Ni-NTA, desalination column)
T1 sequence (looked up): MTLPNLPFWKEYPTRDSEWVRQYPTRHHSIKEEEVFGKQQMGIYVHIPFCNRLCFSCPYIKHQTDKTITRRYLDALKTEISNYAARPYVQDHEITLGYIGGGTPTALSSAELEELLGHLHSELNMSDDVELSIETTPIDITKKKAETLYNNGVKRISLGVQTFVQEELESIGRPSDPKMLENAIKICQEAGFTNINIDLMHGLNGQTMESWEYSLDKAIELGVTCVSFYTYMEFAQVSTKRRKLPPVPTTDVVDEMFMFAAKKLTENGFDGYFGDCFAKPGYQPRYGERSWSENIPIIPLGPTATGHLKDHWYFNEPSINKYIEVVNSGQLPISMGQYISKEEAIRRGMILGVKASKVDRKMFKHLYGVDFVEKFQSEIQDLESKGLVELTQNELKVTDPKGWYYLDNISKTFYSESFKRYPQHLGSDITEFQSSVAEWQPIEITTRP
Experiment: ITC; 600 μM C10Q titrated into 200 μL of 60 μM Swoo_2002; PBS buffer pH 7.4 (after desalination, no glycerol, less than 5‰ DMSO); Malvern MicroCal ITC200
Conditions: both partners purified

- Kd: 8 µM
B1: methyltransferase C10Q (enzyme, Streptomyces zelensis NRRL 11183, UniProt A0A1W6EUU7 1-234, looked up)
chain: MTTEAPLLDLAERVPLDRPHGDIEAVRAYDLGMRRSALMAYKRPTERILAAYREGMTDFVDIGFNTGLLSLHVAGRLPDVAVSGVEEFPHLVDVAEDNLTLGVWANMAGDVEFEQSKLSRLPFPDDSADIVYSFSSLHRWRRPVETLREAARVCKPDGTVLIEDVNRLAEEGHITFILQFVKEGGDQFMRSLKAAYSLDQARDLLREAGLDDWHVVEEDLGLVISNRPVTPVSM
notes: SAM-dependent methyltransferase C10Q of the CC-1065 biosynthetic gene cluster, Streptomyces zelensis NRRL 11183; cloned from total DNA by 'similar procedures' as the intact c10P gene; source: E. coli Rosetta(DE3) (strain E. coli Ro37-Q), purified (Ni-NTA, desalination column)
